# Test results taken from patent US7407939B2, “Protein kinase inhibitors comprising ATP mimetics conjugated to peptides or peptidomimetics” (CureGenics Ltd., priority 2001, dated 2008).
# Where no end group is shown, it is not given here. Side-chain parts run from the residue outwards. [ ]: non-standard residue; d: D form. The star is where a group is joined. X1 = 5‑aminoethylsulfonamide isoquinoline, O=S(=O)(NCCN*)c1cccc2cnccc12; hLeu = CC(C)CC[C@H](N)C(=O)O; Orn = NCCC[C@H](N)C(=O)O; Dab = NCC[C@H](N)C(=O)O; Nva = CCC[C@H](N)C(=O)O; Abu = CC[C@H](N)C(=O)O; Dap = NC[C@H](N)C(=O)O; GlyNH2 = aminoglycine
# Molecular target: T1, PKB (Homo sapiens, UniProt P31749)
# T1 construct: His; HA; made in house
# Assay: PKB in vitro kinase activity assay (soluble His-HA-PKB / SPA bead screening)
# Format: biochemical
# Design: % Inhibition PKB I / % Inhibition PKB II: concentration or dose not given beside the values
# Conditions: 1 μM compound concentration, Assay 1
# T1 sequence (P31749 whole entry, species assumed): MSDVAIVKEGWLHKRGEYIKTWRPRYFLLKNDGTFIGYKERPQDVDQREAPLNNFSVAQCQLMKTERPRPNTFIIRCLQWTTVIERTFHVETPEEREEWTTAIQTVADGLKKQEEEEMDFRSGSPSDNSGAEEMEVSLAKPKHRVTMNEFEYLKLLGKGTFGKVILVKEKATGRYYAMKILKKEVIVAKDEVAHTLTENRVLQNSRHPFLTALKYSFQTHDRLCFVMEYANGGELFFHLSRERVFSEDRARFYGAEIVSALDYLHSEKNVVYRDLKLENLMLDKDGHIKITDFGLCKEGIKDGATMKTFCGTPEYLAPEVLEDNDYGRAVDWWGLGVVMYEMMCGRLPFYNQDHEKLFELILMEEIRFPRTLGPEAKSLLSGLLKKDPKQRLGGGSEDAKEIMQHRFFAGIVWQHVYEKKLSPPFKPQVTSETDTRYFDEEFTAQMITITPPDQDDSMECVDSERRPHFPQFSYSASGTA
row,Substance,"PKB-kinase (spa) Assay 1, % inhibition of kinase activity [%]"
1,60020-1: Arg-Pro-Arg-Dap-Glu(5-aminoethylsulfonamide isoquinoline)-Dab-Phe (RPR[Dap]E(X1)[Dab]F),67
2,60020-9: Arg-Pro-Arg-Orn-Glu(5-aminoethylsulfonamide isoquinoline)-Dab-Phe (RPR[Orn]E(X1)[Dab]F),71
3,60020-11: Arg-Pro-Arg-Orn-Glu(5-aminoethylsulfonamide isoquinoline)-Orn-Phe (RPR[Orn]E(X1)[Orn]F),58
4,60020-33: Arg-Pro-Arg-Dap-Glu(Gly-5-aminoethylsulfonamide isoquinoline)-Dab-Phe (RPR[Dap]E([Gly-X1])[Dab]F),63
5,60020-35: Arg-Pro-Arg-Dap-Glu(Gly-5-aminoethylsulfonamide isoquinoline)-Orn-Phe (RPR[Dap]E([Gly-X1])[Orn]F; not fully specified),43

# Further lines, results first:
row,"PKB-kinase (spa) Assay 1, % inhibition of kinase activity [%]",Substance
1,47,60020-2: Arg-Pro-Arg-Dap-Glu(5-aminoethylsulfonamide isoquinoline)-Dab-Hol (RPR[Dap]E(X1)[Dab][hLeu])
2,52,60020-3: Arg-Pro-Arg-Dap-Glu(5-aminoethylsulfonamide isoquinoline)-Orn-Phe (RPR[Dap]E(X1)[Orn]F)
3,45,60020-10: Arg-Pro-Arg-Orn-Glu(5-aminoethylsulfonamide isoquinoline)-Dab-Hol (RPR[Orn]E(X1)[Dab][hLeu])
4,64,60020-34: Arg-Pro-Arg-Dap-Glu(Gly-5-aminoethylsulfonamide isoquinoline)-Dab-Hol (RPR[Dap]E([Gly-X1])[Dab][hLeu])

# Same assay, conditions: 1 μM compound concentration, Assay 2
row,Substance,"PKB-kinase (spa) Assay 2, % inhibition of kinase activity [%]"
1,60020-1: Arg-Pro-Arg-Dap-Glu(5-aminoethylsulfonamide isoquinoline)-Dab-Phe (RPR[Dap]E(X1)[Dab]F),65
2,60020-9: Arg-Pro-Arg-Orn-Glu(5-aminoethylsulfonamide isoquinoline)-Dab-Phe (RPR[Orn]E(X1)[Dab]F),57
3,60020-11: Arg-Pro-Arg-Orn-Glu(5-aminoethylsulfonamide isoquinoline)-Orn-Phe (RPR[Orn]E(X1)[Orn]F),52
4,60020-33: Arg-Pro-Arg-Dap-Glu(Gly-5-aminoethylsulfonamide isoquinoline)-Dab-Phe (RPR[Dap]E([Gly-X1])[Dab]F),69
5,60020-35: Arg-Pro-Arg-Dap-Glu(Gly-5-aminoethylsulfonamide isoquinoline)-Orn-Phe (RPR[Dap]E([Gly-X1])[Orn]F; not fully specified),56

# The next lines start with the values.
row,"PKB-kinase (spa) Assay 2, % inhibition of kinase activity [%]",Substance
1,48,60020-2: Arg-Pro-Arg-Dap-Glu(5-aminoethylsulfonamide isoquinoline)-Dab-Hol (RPR[Dap]E(X1)[Dab][hLeu])
2,60,60020-3: Arg-Pro-Arg-Dap-Glu(5-aminoethylsulfonamide isoquinoline)-Orn-Phe (RPR[Dap]E(X1)[Orn]F)
3,48,60020-10: Arg-Pro-Arg-Orn-Glu(5-aminoethylsulfonamide isoquinoline)-Dab-Hol (RPR[Orn]E(X1)[Dab][hLeu])
4,65,60020-34: Arg-Pro-Arg-Dap-Glu(Gly-5-aminoethylsulfonamide isoquinoline)-Dab-Hol (RPR[Dap]E([Gly-X1])[Dab][hLeu])

# Same assay, conditions: Table 3, linear 7-mer peptides
row,Activity PKB,Substance
1,Not active,RPR[Orn]AT[Orn] [AR 60003-96]

# Same assay, conditions: plate screening, peptide moiety alone, PKB I
row,Substance,% Inhibition PKB I [%]
1,60002-88 (RPRT[Abu][Dap]F) [Compound 60002-88],40
2,60005-84 (RPR[Nva]TA[hLeu]) [Compound 60005-84],39

# Continued, values first:
row,% Inhibition PKB I [%],Substance
1,43,60005-32 (RPRT[GlyNH2]A[hLeu]) [Compound 60005-32]
2,70,60005-75 (RPR[Nva]S[GlyNH2][hLeu]) [Compound 60005-75]

# Same assay, conditions: plate screening, peptide moiety alone, PKB II
row,% Inhibition PKB II [%],Substance
1,44,60005-32 (RPRT[GlyNH2]A[hLeu]) [Compound 60005-32]
2,70,60005-75 (RPR[Nva]S[GlyNH2][hLeu]) [Compound 60005-75]
3,48,60005-84 (RPR[Nva]TA[hLeu]) [Compound 60005-84]

# Molecular target: T2, PKA (Bos taurus, UniProt P00517)
# T2 construct: purchased Promega
# Assay: In vitro PKA kinase activity assay (kemptide / SPA beads);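 note: Cell-free assay of purified PKA catalytic subunit phosphorylating the 7-mer kemptide substrate, run in MOPS buffer with magnesium acetate and BSA, with blank wells lacking enzyme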
# Format: biochemical
# Design: % Inhibition PKA: concentration or dose not given beside the values
# Conditions: 1 μM compound concentration, Assay 1
row,Substance,"PKA-kinase Assay 1, % inhibition of kinase activity [%]"
1,60020-1: Arg-Pro-Arg-Dap-Glu(5-aminoethylsulfonamide isoquinoline)-Dab-Phe (RPR[Dap]E(X1)[Dab]F),98
2,60020-9: Arg-Pro-Arg-Orn-Glu(5-aminoethylsulfonamide isoquinoline)-Dab-Phe (RPR[Orn]E(X1)[Dab]F),96
3,60020-11: Arg-Pro-Arg-Orn-Glu(5-aminoethylsulfonamide isoquinoline)-Orn-Phe (RPR[Orn]E(X1)[Orn]F),95
4,60020-33: Arg-Pro-Arg-Dap-Glu(Gly-5-aminoethylsulfonamide isoquinoline)-Dab-Phe (RPR[Dap]E([Gly-X1])[Dab]F),98
5,60020-35: Arg-Pro-Arg-Dap-Glu(Gly-5-aminoethylsulfonamide isoquinoline)-Orn-Phe (RPR[Dap]E([Gly-X1])[Orn]F; not fully specified),95

# The remaining lines, values ahead:
row,"PKA-kinase Assay 1, % inhibition of kinase activity [%]",Substance
1,94,60020-2: Arg-Pro-Arg-Dap-Glu(5-aminoethylsulfonamide isoquinoline)-Dab-Hol (RPR[Dap]E(X1)[Dab][hLeu])
2,96,60020-3: Arg-Pro-Arg-Dap-Glu(5-aminoethylsulfonamide isoquinoline)-Orn-Phe (RPR[Dap]E(X1)[Orn]F)
3,92,60020-10: Arg-Pro-Arg-Orn-Glu(5-aminoethylsulfonamide isoquinoline)-Dab-Hol (RPR[Orn]E(X1)[Dab][hLeu])
4,97,60020-34: Arg-Pro-Arg-Dap-Glu(Gly-5-aminoethylsulfonamide isoquinoline)-Dab-Hol (RPR[Dap]E([Gly-X1])[Dab][hLeu])

# Same assay, conditions: 1 μM compound concentration, Assay 2
row,Substance,"PKA-kinase Assay 2, % inhibition of kinase activity [%]"
1,60020-1: Arg-Pro-Arg-Dap-Glu(5-aminoethylsulfonamide isoquinoline)-Dab-Phe (RPR[Dap]E(X1)[Dab]F),99
2,60020-9: Arg-Pro-Arg-Orn-Glu(5-aminoethylsulfonamide isoquinoline)-Dab-Phe (RPR[Orn]E(X1)[Dab]F),97
3,60020-11: Arg-Pro-Arg-Orn-Glu(5-aminoethylsulfonamide isoquinoline)-Orn-Phe (RPR[Orn]E(X1)[Orn]F),96
4,60020-33: Arg-Pro-Arg-Dap-Glu(Gly-5-aminoethylsulfonamide isoquinoline)-Dab-Phe (RPR[Dap]E([Gly-X1])[Dab]F),98
5,60020-35: Arg-Pro-Arg-Dap-Glu(Gly-5-aminoethylsulfonamide isoquinoline)-Orn-Phe (RPR[Dap]E([Gly-X1])[Orn]F; not fully specified),96

# Next, values leading:
row,"PKA-kinase Assay 2, % inhibition of kinase activity [%]",Substance
1,95,60020-2: Arg-Pro-Arg-Dap-Glu(5-aminoethylsulfonamide isoquinoline)-Dab-Hol (RPR[Dap]E(X1)[Dab][hLeu])
2,96,60020-3: Arg-Pro-Arg-Dap-Glu(5-aminoethylsulfonamide isoquinoline)-Orn-Phe (RPR[Dap]E(X1)[Orn]F)
3,94,60020-10: Arg-Pro-Arg-Orn-Glu(5-aminoethylsulfonamide isoquinoline)-Dab-Hol (RPR[Orn]E(X1)[Dab][hLeu])
4,98,60020-34: Arg-Pro-Arg-Dap-Glu(Gly-5-aminoethylsulfonamide isoquinoline)-Dab-Hol (RPR[Dap]E([Gly-X1])[Dab][hLeu])

# Same assay, conditions: plate screening, peptide moiety alone
row,Substance,% Inhibition PKA [%]
1,60002-88 (RPRT[Abu][Dap]F) [Compound 60002-88],−3
2,60005-84 (RPR[Nva]TA[hLeu]) [Compound 60005-84],7

# Continued, values first:
row,% Inhibition PKA [%],Substance
1,4,60005-32 (RPRT[GlyNH2]A[hLeu]) [Compound 60005-32]
2,−4,60005-75 (RPR[Nva]S[GlyNH2][hLeu]) [Compound 60005-75]
